Laboratory results reported in paper PMC10397247.
Blank lines part the entries; values can stand above or below the binder they belong to.

Columns and labels:
Experiment in all cases: two-hybrid library CCNG1;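 further: natural log of median RNA to DNA barcode read ratio; higher means stronger binding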
4H344-bH = target: T1, 4H344-bH
T1 chain: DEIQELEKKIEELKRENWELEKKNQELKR

4H363-bH = target: T2, 4H363-bH
T2 chain: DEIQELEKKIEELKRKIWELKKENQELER

4H3907-bH = target: T3, 4H3907-bH
T3 chain: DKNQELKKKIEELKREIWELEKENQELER

4H3961-bH = target: T4, 4H3961-bH
T4 chain: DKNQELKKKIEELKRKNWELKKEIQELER

4H470-bH = target: T5, 4H470-bH
T5 chain: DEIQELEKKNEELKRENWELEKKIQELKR

O13-bP = target: T6, O13-bP
T6 chain: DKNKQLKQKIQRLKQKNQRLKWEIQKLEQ

O14-bP = target: T7, O14-bP
T7 chain: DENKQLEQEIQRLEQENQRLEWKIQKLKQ

O15-bP = target: T8, O15-bP
T8 chain: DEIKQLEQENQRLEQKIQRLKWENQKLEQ

O16-bP = target: T9, O16-bP
T9 chain: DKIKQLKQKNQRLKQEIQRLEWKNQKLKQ

O2-bP = target: T10, O2-bP
T10 chain: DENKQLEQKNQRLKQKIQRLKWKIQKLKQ

O3-bP = target: T11, O3-bP
T11 chain: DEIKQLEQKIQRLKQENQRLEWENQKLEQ

O4-bP = target: T12, O4-bP
T12 chain: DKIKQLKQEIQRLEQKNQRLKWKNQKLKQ

O5-bP = target: T13, O5-bP
T13 chain: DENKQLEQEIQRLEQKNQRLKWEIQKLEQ

O6-bP = target: T14, O6-bP
T14 chain: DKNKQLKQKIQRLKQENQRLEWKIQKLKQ

O7-bP = target: T15, O7-bP
T15 chain: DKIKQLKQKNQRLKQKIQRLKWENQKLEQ

O8-bP = target: T16, O8-bP
T16 chain: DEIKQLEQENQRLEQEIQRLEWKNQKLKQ

O9-bP = target: T17, O9-bP
T17 chain: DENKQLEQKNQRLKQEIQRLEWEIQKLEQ

4H2438-bN = target: T18, 4H2438-bN
T18 chain: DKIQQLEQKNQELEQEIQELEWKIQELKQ

4H2473-bN = target: T19, 4H2473-bN
T19 chain: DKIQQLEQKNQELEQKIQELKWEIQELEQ

4H2503-bN = target: T20, 4H2503-bN
T20 chain: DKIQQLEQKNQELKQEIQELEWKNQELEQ

4H2588-bN = target: T21, 4H2588-bN
T21 chain: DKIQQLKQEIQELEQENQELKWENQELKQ

4H2692-bN = target: T22, 4H2692-bN
T22 chain: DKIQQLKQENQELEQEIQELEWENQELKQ

4H2717-bN = target: T23, 4H2717-bN
T23 chain: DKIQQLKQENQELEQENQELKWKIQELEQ

4H2839-bN = target: T24, 4H2839-bN
T24 chain: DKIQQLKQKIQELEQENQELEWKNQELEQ

4H2915-bN = target: T25, 4H2915-bN
T25 chain: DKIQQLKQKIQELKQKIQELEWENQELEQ

4H3057-bN = target: T26, 4H3057-bN
T26 chain: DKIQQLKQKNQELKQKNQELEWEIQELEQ

4H319-bN = target: T27, 4H319-bN
T27 chain: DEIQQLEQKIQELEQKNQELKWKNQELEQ

4H3277-bN = target: T28, 4H3277-bN
T28 chain: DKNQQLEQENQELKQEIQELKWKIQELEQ

4H348-bN = target: T29, 4H348-bN
T29 chain: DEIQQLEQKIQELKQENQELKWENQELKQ

4H3926-bH = target: T30, 4H3926-bH
T30 chain: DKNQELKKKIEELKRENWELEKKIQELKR

4H40-bN = target: T31, 4H40-bN
T31 chain: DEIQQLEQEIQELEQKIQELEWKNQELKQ

4H477-bN = target: T32, 4H477-bN
T32 chain: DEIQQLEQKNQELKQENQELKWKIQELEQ

4H492-bN = target: T33, 4H492-bN
T33 chain: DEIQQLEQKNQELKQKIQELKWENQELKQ

4H741-bN = target: T34, 4H741-bN
T34 chain: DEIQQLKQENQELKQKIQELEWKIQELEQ

- interaction score (4H344-bH): 0.843
- interaction score (4H363-bH): 0.49
- interaction score (4H3907-bH): 0.791
- interaction score (4H3961-bH): 0.837
- interaction score (4H470-bH): 0.944
Binder: DEIQELEKKIEELKRENWELEKKNQELKR [4H344-bH]

- interaction score (O13-bP): -2.25
- interaction score (O14-bP): 1.35
- interaction score (O15-bP): -0.599
- interaction score (O16-bP): -1.17
- interaction score (O2-bP): -1.3
- interaction score (O3-bP): -1.76
- interaction score (O4-bP): -0.851
- interaction score (O5-bP): -0.814
- interaction score (O6-bP): -0.094
- interaction score (O7-bP): -1.19
- interaction score (O8-bP): -0.609
- interaction score (O9-bP): -1.05
Binder: DKNKQLKQKIQRLKQKNQRLKWEIQKLEQ [O13-bP]

- interaction score (4H2438-bN): 1.09
- interaction score (4H2473-bN): 1.05
- interaction score (4H2503-bN): 0.452
- interaction score (4H2588-bN): -0.403
- interaction score (4H2692-bN): -1.41
- interaction score (4H2717-bN): -0.613
- interaction score (4H2839-bN): -1.05
- interaction score (4H2915-bN): 2
- interaction score (4H3057-bN): 2.19
- interaction score (4H319-bN): -0.63
- interaction score (4H3277-bN): -0.843
- interaction score (4H348-bN): -1.05
- interaction score (4H3926-bH): -4.14
- interaction score (4H40-bN): -0.693
- interaction score (4H477-bN): 0.509
- interaction score (4H492-bN): 0.204
- interaction score (4H741-bN): -0.278
Binder: DKIQQLEQKNQELEQEIQELEWKIQELKQ [4H2438-bN]
